# Reference: the nanobody polyreactivity screen of Harvey et al. (2022)
# Assay: yeast display, Sf9 membrane polyspecificity reagent, FACS + sequencing; frameworks hold sequencing errors
# Procedure, shortened: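 Using colony PCR, genes from sorted yeast display clones were amplified, then sequenced on MiSeq at 2 × 250 and filtered by CDR length. The clones had been stained with 10% biotinylated, detergent-solubilized Sf9 membrane reagent for 1 hour at 4 °C and sorted by FACS into low and high (top ~1%) gates on anti-HA and streptavidin fluorescence. Polyreactivity labels come from the gate of origin.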
row,Sequence,polyreactivity (PSR sort gate)
1,QVQLVESGGGLVQAGGSLRLSCAASGSTFQGNAMGWYRQAPGKERELVAAISKRGGSTYYADSVKGRFTISRDNAKNTVYLQMNSLKPEDTAVYFCNAKLFASRGYYFGGAYQYGYWGQGTQVTVSS,high polyreactivity
2,QVQLVESGGGLVQAGGSLRLSCAASGSTFQGYAMGWYRQAPGKERELVAAISRSGSGTYYADSVKGRFTISRDNAKNTVYLQMNSLKPEDTAVYYCAKDDVRRSTSRHYYYWGHGTQVTVSS,high polyreactivity
3,QVQLVESGGGLVQAGGSLRLSCAASGSTFQGYDMGWYRQAPGKERELVAAINYSGGSTYYADSVKGRFTISRDNAKNTVYLQLNSLKPEDTAVFYCNADGYSQFWYEYYYCGQGTQVTVSS,high polyreactivity
4,QVQLVESGGGLVQAGGSLRLSCAASGSTFQIYAMGWYRQAPGKEWELVAAITSSSSTNYADSVKGRFTISRDNAKNTVYLQMNSLKPEDTAVYYCAADVSWRSNWYDYWGQGTQVTVSS,low polyreactivity
5,QVQLVESGGGLVQAGGSLRLSCAASGSTFQIYAMGWYRQAPGNERELVAAITSSSSTNYADSVKGRFTISRDNAKNTVYLQMNSLKPEDTAVYYCAADVSWRSNWYDYWGQGTQVTVSS,low polyreactivity
6,QVQLVESGGGLVQAGGSLRLSCAASGSTFQLYAMGWYRQAPGKERELVAAISGIGDSTYYADSVKGRFTISRDNAKYTVYLQMNSLKPEDTAVYYCAREFCDGLSGKFDYWGQGTQVNVSS,low polyreactivity
7,QVQLVESGGGLVQAGGSLRLSCAASGSTFQNYAMGWYIQAPGKERELVAAIRGNGGITYYADSVKGRFTISRDNAKNTVYLQMNSLKPEDTAVYYFAVRSAWVYGIRRDYWGQGTQVTVSS,high polyreactivity
8,QVQLVESGGGLVQAGGSLRLSCAASGSTFQNYAMGWYRQAPGKERELVAAINWSGGSTYYADSVKVRFTISRDNAKNTVYLQMNSLKPEDTAVYYCATDDPLAYGSFGPYQPYDYWGQGTQVTVSS,low polyreactivity
9,QVQLVESGGGLVQAGGSLRLSCAASGSTFQPYAMGWYREAPGKERELVATITWRGGRTYYADSVKGRFTISRDNAKYTVYLQMNSLKPEDTAVYYCNVAYRGFRYYYWGQGTQVNVSS,high polyreactivity
10,QVQLVESGGGLVQAGGSLRLSCAASGSTFQPYAMGWYRQAPGKEREFVATISGSAGSTYYADSVKGRFKISRDNAKNTVYLQMNSLKPEDTAVYYCNARPARKSLDYDYWGQGTQVTVSS,low polyreactivity
11,QVQLVESGGGLVQAGGSLRLSCAASGSTFQRYAMGWYRQAPGKERELVAAITIRGTRTYYADSVKGRFTISRDNAKNTVYLQMNSLKPEDTAVYYCAATYYWYGHPSRRYDYWGQGTQVTVSS,high polyreactivity
12,QVQLVESGGGLVQAGGSLRLSCAASGSTFQRYTMGWYSQAPGKERELVAAISQSGGRTYYADSVKGRFTISREHAKKTVYLEMNSLKPEDTAVYSCNAASRTKFDYWGQGTQVTVSS,high polyreactivity
13,QVQLVESGGGLVQAGGSLRLSCAASGSTFQSYAMGWYRQAPGKERELVASITRTGGTTYYADSVKGRFTISRDNAKNTVYLQMNSLKPEDTAVYYCNADLGQPISLDDFDYWGQGTQVTVSS,low polyreactivity
14,QVQLVESGGGLVQAGGSLRLSCAASGSTFQTYAMGWSRQAPGKERELVAAISFNGGSTYYADSVKGRFTISRDNAKNTVYLQMNSLKPEDTAVYYCAVEYTWATALYDGRHDYWGQGTQVTVSS,high polyreactivity
15,QVQLVESGGGLVQAGGSLRLSCAASGSTFQTYAMGWYRQAPGKERELVAAITSGGSTNYADSVKGRFTISRDNAKNTVYLQMNSLKPEETAVYYCAVRQIYQTSDHRLQYDYWGQGTQVSVSS,low polyreactivity
16,QVQLVESGGGLVQAGGSLRLSCAASGSTFQTYAMGWYRQAPGKERELVASIDYSGGSTYYADSVKGRFTISRDNAKNTVYLQMNSLKPEDTAVYYCAADLSSDSSYSGYDYWGQGTQVTVSS,low polyreactivity
17,QVQLVESGGGLVQAGGSLRLSCAASGSTFQWYTMGWYRQAPGKERELVAAITWSGASTYYADSVKGRFTISRDNAKNTVYLQMNSLKPDYTAVYYCAADWRRGSGFYYWGQGTQVTVSS,high polyreactivity
18,QVQLVESGGGLVQAGGSLRLSCAASGSTFQYNAMGWYRQAPGKERELVAVISGSGSRTYYADSVKGRFTISRDNAKNTVYLQMNSLKPEDTAVYYCAKQRGGEPRSSTYYYWGQGTQVTVSS,high polyreactivity
19,QVQLVESGGGLVQAGGSLRLSCAASGSTFQYYAMGGYIQAPGKQRQLVAAISSGGSTYYADSVKGRFTISRDNAMNTVYLQMNSLKPEDTAVYYCAADGYYSVSRYTSYKYYYWGQGTQVTVSS,high polyreactivity
20,QVQLVESGGGLVQAGGSLRLSCAASGSTFQYYAMGWYRQAPGKERELVAAISSGGSTYYADSVKGRFTISRDIAKNTVYLQMNSLKPEDTAVYYCAAYEYDGDYGYCGQGTQVTVSS,high polyreactivity
21,QVQLVESGGGLVQAGGSLRLSCAASGSTFQYYARGWYRQAPGKETELVAAISDRDGGTFYADSVKGRFTISRDNAKNTVYLQMNSLKPEDTAVYYCATDAVGFRLDDNGYWGQGTQVTVSS,low polyreactivity
